Results as given in patent US20150086555A1.

B1: TCN-532 (5262_H18) (antibody, V domains shown)
VH: QVQLQESGPGLVKPSETLSLTCTVSGGSVSSETYYWSWIRQPPGKGLEWIGYIYYIGNTDYRPSLKSRVTISLDTSKNQFSLKLSSVTAADTAVYYCARGAYYDSSGYPAFYIWGQGTMVTVSS
VL: QSVLTQPPSVSGAPGQRVTISCTGSSSNIGSDYDVHWYKQLPGTAPKLLIFGNSNRPSGVPDRFSGSKSGTSASLAITGLQAEDEADYYCQSYDSSLSGFHVFGSGTKVTVL
B2: TCN-529 (5297_H01) (antibody, V domains shown)
VH: QITLRESGPTLVKPTQTLTLTCTFSGFSLSTNGVNVGWIRQPPGKALEWLALIYWDDDKRYSPSLKRRLTITKDTSKNQVVLTLTNMDPVDTATYYCAHRPDFYGDFEYWGPGTLVTVSS
VL: QSALTQPASVSGSPGQSITISCTGSSSDIGGYNYVSWYQQHPGKAPKLMIYDVNNRPSGVSNRFSGSKSGNTASLTISGLQTDDEADYYCGSYTGSPHYVFGTGTKVTVL

What was measured:
Details in all cases: remark: other sources report otherwise
[1] = biological target: T1, recombinant soluble homotrimeric HA of A/duck/Yangzhou/02/05 (H8N4) (Influenza A virus A/duck/Yangzhou/02/2005(H8N4)); assay: HA microarray, BCC supernatant
[2] = biological target: T2, recombinant soluble homotrimeric HA of A/Wisconsin/67/05 (H3N2) (Influenza A virus A/Wisconsin/67/2005(H3N2)); assay: HA microarray, BCC supernatant
[3] = biological target: T3, recombinant soluble homotrimeric HA of A/chicken/Vietnam/NCVD-016/08 (H5N1) (Influenza A virus A/chicken/Vietnam/NCVD-016/2008(H5N1)); assay: HA microarray, BCC supernatant
[4] = biological target: T4, recombinant soluble homotrimeric HA of A/Japan/305/57 (H2N2) (Influenza A virus A/Japan/305/1957(H2N2)); assay: HA microarray, BCC supernatant
[5] = biological target: T5, recombinant soluble homotrimeric HA of A/Netherlands/219/03 (H7N7) (Influenza A virus A/Netherlands/219/03(H7N7)); assay: HA microarray, BCC supernatant
[6] = biological target: T6, recombinant soluble homotrimeric HA of A/swine/Ontario/01911-2/99 (H4N6) (Influenza A virus A/Swine/Ontario/01911-2/99 (H4N6)); assay: HA microarray, BCC supernatant
[7] = biological target: T7, recombinant soluble homotrimeric HA of A/Solomon Islands/3/06 (H1N1) (Influenza A virus A/Solomon Islands/3/2006(H1N1)); assay: HA microarray, BCC supernatant
[8] = biological target: T8, recombinant soluble homotrimeric HA of A/northern shoveler/California/HKWF115/07 (H6) (Influenza A virus A/northern shoveler/California/HKWF115/2007(H6N1)); assay: HA microarray, BCC supernatant
[9] = biological target: recombinant homotrimeric HA A/swine/Ontario/01911-2/99 H4N6 (Influenza A virus A/Swine/Ontario/01911-2/99 (H4N6)); assay: protein microarray, purified IgG, trimeric HA
[10] = biological target: recombinant homotrimeric HA A/chicken/Vietnam/NCVD-016/08 H5N1 (Influenza A virus A/chicken/Vietnam/NCVD-016/2008(H5N1)); assay: protein microarray, purified IgG, trimeric HA
[11] = biological target: recombinant homotrimeric HA A/Solomon Islands/3/06 H1N1 (Influenza A virus A/Solomon Islands/3/2006(H1N1)); assay: protein microarray, purified IgG, trimeric HA
[12] = biological target: recombinant homotrimeric HA A/Netherlands/219/03 H7N7 (Influenza A virus A/Netherlands/219/03(H7N7)); assay: protein microarray, purified IgG, trimeric HA
[13] = biological target: recombinant homotrimeric HA A/Japan/305/57 H2N2 (Influenza A virus A/Japan/305/1957(H2N2)); assay: protein microarray, purified IgG, trimeric HA
[14] = biological target: recombinant homotrimeric HA A/South Carolina/1/18 H1N1 (Influenza A virus A/South Carolina/1/18 (H1N1)); assay: protein microarray, purified IgG, trimeric HA
[15] = biological target: recombinant homotrimeric HA A/duck/Yangzhou/02/05 H8N4 (Influenza A virus A/duck/Yangzhou/02/2005(H8N4)); assay: protein microarray, purified IgG, trimeric HA
[16] = biological target: recombinant homotrimeric HA A/Wisconsin/67/05 H3N2 (Influenza A virus A/Wisconsin/67/2005(H3N2)); assay: protein microarray, purified IgG, trimeric HA
[17] = biological target: recombinant homotrimeric HA A/northern shoveler/California/HKWF115/07 H6N4 (Influenza A virus A/northern shoveler/California/HKWF115/2007(H6N1)); assay: protein microarray, purified IgG, trimeric HA
[18] = biological target: recombinant soluble homotrimeric HA of A/South Carolina/1/18 (H1N1) (Influenza A virus A/South Carolina/1/18 (H1N1)); assay: trimeric HA microarray, transfection supernatant set 3
[19] = biological target: T1, recombinant soluble homotrimeric HA of …; assay: as above
[20] = biological target: T2, recombinant soluble homotrimeric HA of …; assay: as above
[21] = biological target: T3, recombinant soluble homotrimeric HA of …; assay: as above
[22] = biological target: T4, recombinant soluble homotrimeric HA of …; assay: as above
[23] = biological target: T5, recombinant soluble homotrimeric HA of …; assay: as above
[24] = biological target: recombinant soluble homotrimeric HA of A/Hong Kong/1073/99 (H9N2) (Influenza A virus A/Hong Kong/1073/99 (H9N2)); assay: as above
[25] = biological target: T6, recombinant soluble homotrimeric HA of …; assay: as above
[26] = biological target: T7, recombinant soluble homotrimeric HA of …; assay: as above
[27] = biological target: recombinant soluble homotrimeric HA of A/California/4/09 (H1N1) (Influenza A virus A/California/04/2009(H1N1)); assay: as above
[28] = biological target: T8, recombinant soluble homotrimeric HA of …; assay: as above
[29] = biological target: recombinant homotrimeric HA A/California/4/09 H1N1 (Influenza A virus A/California/04/2009(H1N1)); assay: protein microarray, purified IgG, trimeric HA

Row | Binder | Trimeric HA Binding: RLU [2] | Trimeric HA Binding: RLU [3] | Trimeric HA Binding: RLU [4] | Trimeric HA Binding: RLU [5] | Trimeric HA Binding: RLU [8] | Trimeric HA Binding: RLU [10] | Trimeric HA Binding: RLU [11] | Trimeric HA Binding: RLU [12] | Trimeric HA Binding: RLU [13] | Trimeric HA Binding: RLU [14] | Trimeric HA Binding: RLU [15] | Trimeric HA Binding: RLU [16] | Trimeric HA Binding: RLU [18] | Trimeric HA Binding: RLU [19] | Trimeric HA Binding: RLU [20] | Trimeric HA Binding: RLU [21] | Trimeric HA Binding: RLU [22] | Trimeric HA Binding: RLU [25] | Trimeric HA Binding: RLU [27] | also measured
1 | B1 | 18000 RLU | 46 RLU | 176 RLU | 327 RLU | 511 RLU | 487 RLU | 571 RLU | 129 RLU | 764 RLU | 149 RLU | 176 RLU | 25200 RLU | 311 RLU | 57 RLU | 9970 RLU | 29 RLU | 441 RLU | 29 RLU | 23600 RLU | Trimeric HA Binding: RLU [1]: 785 RLU; Trimeric HA Binding: RLU [6]: 119 RLU; Trimeric HA Binding: RLU [7]: 327 RLU; Trimeric HA Binding: RLU [9]: 122 RLU; Trimeric HA Binding: RLU [17]: 117 RLU; Trimeric HA Binding: RLU [23]: 42 RLU; Trimeric HA Binding: RLU [24]: 48 RLU; Trimeric HA Binding: RLU [26]: 59 RLU; Trimeric HA Binding: RLU [28]: 78 RLU
2 | B2 | 51600 RLU | 410 RLU | 435 RLU | 1160 RLU | 533 RLU | 681 RLU | 2820 RLU | 1310 RLU | 1560 RLU | 243 RLU | 737 RLU | 25600 RLU | 158 RLU | 48 RLU | 2940 RLU | 33 RLU | 45 RLU | 45 RLU | 735 RLU | Trimeric HA Binding: RLU [29]: 977 RLU
